Assay results: the nanobody polyreactivity screen of Harvey et al. (2022)

Assay: yeast display, Sf9 membrane polyspecificity reagent, FACS + sequencing; frameworks hold sequencing errors
Outline: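 Using colony PCR, genes from sorted yeast display clones were amplified, then sequenced on MiSeq at 2 × 250 and filtered by CDR length. The clones had been stained with 10% biotinylated, detergent-solubilized Sf9 membrane reagent for 1 hour at 4 °C and sorted by FACS into low and high (top ~1%) gates on anti-HA and streptavidin fluorescence. Polyreactivity labels come from the gate of origin.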

Row | Sequence | polyreactivity (PSR sort gate)
1 | QVQLVESGGGLVQAGGSLRLSCAASGFTFPYYAMGLYRQAPGKERELVATISSGSSTNYADSVKGRFTISRDNAKNTVYLQMNSLKPEDTAVYYCAAVRSGYSGTDGQYSKYGYWGQGTQVTVSS | high polyreactivity
2 | QVQLVESGGGLVQAGGSLRLSCAASGFTFPYYAMGWYRQAPGKERELVAAINSVGSTYYADSVKGRFTISRDNAKNTVYLQMNSLKPEDTAVYYCNKRPSHWRHYIMDYWGQGTQVTVSS | high polyreactivity
3 | QVQLVESGGGLVQAGGSLRLSCAASGFTFPYYAMGWYRQAPGKERELVAAITSSGGSTYYADSVKGRFTISRDNAKNTVYLQMNSLKPEDTAVYYCAVDAYYYKWYDYWGQGTQVTVSS | high polyreactivity
4 | QVQLVESGGGLVQAGGSLRLSCAASGFTFPYYAMGWYRQAPGKERELVAGISWDGDSTYYADSVKGRFTISRDNAKNTVYLQMNSLKPEDTAVYYCAAGYITYYYGEYGYWGQGTQVTVSS | low polyreactivity
5 | QVQLVESGGGLVQAGGSLRLSCAASGFTFQEYAMGWYRQAPGKERELVAAITSGTTTNYADSVKGRFTISRDNAKNTVYFQMNSLKPEDTAVYYCNVRSQSGSYRVYEYDYWGQGTQVTVSS | low polyreactivity
6 | QVQLVESGGGLVQAGGSLRLSCAASGFTFQPNAMGWYRQAPGKERELVAAITWSTGRTYYADSVKGRFTISRDNAKNTVYLQMNSLKPEDTAVYYCNKRKNLLHSFEYDYWGQGTQVTVSS | low polyreactivity
7 | QVQLVESGGGLVQAGGSLRLSCAASGFTFQTYAMGWYRQEPGKERELVATIRTRGGSTSYADSVKGRFTISRDNAKNTVYLQMNSLKPEDTAVYYCNGRLSYRSAWYYGGDRYDYWGQGTQVTVSS | high polyreactivity
8 | QVQLVESGGGLVQAGGSLRLSCAASGFTFQYYAMGWYRQAPGKERELVAAISWSGASTYYADSVKGRFTISRDNAKNTVYLQMNSLKPEDTAVYYSAAKYYRDRDWGQGTQVTVSS | high polyreactivity
9 | QVQLVESGGGLVQAGGSLRLSCAASGFTFQYYAMGWYRQAPGKERELVAAITRGDSTNYADSVKGRFTISRDNAKNTVYLQMNSLKPEDTAVYYCAKSVRYPASDYWGQGTQVTVSS | low polyreactivity
10 | QVQLVESGGGLVQAGGSLRLSCAASGFTFQYYAMGWYRQAPGKERELVAVISRSGGRTYYADSVKGRFTISRDNGKNTVYLQMISLKPEDTAVYYCNAQSYIPTTETYDYWGQGTQVTVSS | high polyreactivity
11 | QVQLVESGGGLVQAGGSLRLSCAASGFTFRFYAMGWYRQAPGKERELVAGISSSGGTTYYADSVKGRFTISRDNAKNTVYLQMNSLKPEDTAVYYCNRRFLPAEQYTKKYYYWGQGTQVTVSS | high polyreactivity
12 | QVQLVESGGGLVQAGGSLRLSCAASGFTFRFYAMGWYRQAPGKERELVATISSRGGRTYYADSVKGRFTISRDNAKNTVYLQLNSLKPEDTAVYYCAADQKSQYQGNYWGQGTQVTVSS | high polyreactivity
13 | QVQLVESGGGLVQAGGSLRLSCAASGFTFRFYVMVWYRLAPGKERELVAAITASGGTTYYADSVKGRFTISRDNAKNSVYLQMNSLKPEDTAVYYCNALYYYLYGYDYWGQGTQVTVSS | high polyreactivity
14 | QVQLVESGGGLVQAGGSLRLSCAASGFTFRGYAMGWYRQAPGKERELVAAITWSGGSTYYADSVKGRFTISRDNAKYTVYLQMNSLKPEDTAVYYCNAYYASGYRQYDYWGQGTQVTVSS | high polyreactivity
15 | QVQLVESGGGLVQAGGSLRLSCAASGFTFRGYDMGWYRQAPGKERELVAAISGGVSTNYADSVKGRFTISRDNAKNTVYLQMNSLKPEDTAVYYCAAVPVSAGYSSIFDYWGQGTQVTVSS | low polyreactivity
16 | QVQLVESGGGLVQAGGSLRLSCAASGFTFRGYVMGWYRQAPGKERELVAAITNIGTSTYYADSVKGRFTISRDNAKNTVYLQMNSLKPEDTAVYYCAARLRTKFYYWGQGTLVTVSS | low polyreactivity
17 | QVQLVESGGGLVQAGGSLRLSCAASGFTFRHYTMGWYRQAPGKERELVAAISSSGVTTYYADSVKGRFTISRDNAKNTVYLQMISLKPEDTAVYYCADRPYYYYVDYDYWGLGTQVTVSS | high polyreactivity
18 | QVQLVESGGGLVQAGGSLRLSCAASGFTFRIYAMGWYRQAPGKERELVATISWSGTSTYYADSVKGRFTISRDNAKNTVYLQMNSLKPEDTAVYYCAKDGVSFYWLNKYYYWGQGTQVTVSS | low polyreactivity
19 | QVQLVESGGGLVQAGGSLRLSCAASGFTFRKNAMGWYRQAPGKERELVAAIRGSAGSTYYADSVKGRFTISRDNAKNTVYLQMNSLKPEDTAVSYCATGGYPSLWDGYGYWGQGTQVTVSS | low polyreactivity
20 | QVQLVESGGGLVQAGGSLRLSCAASGFTFRKNAMGWYRQAPGKERELVAAISSGGGRTYYADSVKGRFTISRDNAKNTVYLQMNSLKPEDTAVYYCNAVRVVRLTFQDWISMDYWGQGTQVTVSS | high polyreactivity
21 | QVQLVESGGGLVQAGGSLRLSCAASGFTFRLYAMGWYRPAPGKERELVARISSGGSTHYADSVKGRFTISRDNAKNTVSLQMNSLKPEDTAVYYCAAGWGYWRSYGSWGQGTQVTVSS | high polyreactivity
22 | QVQLVESGGGLVQAGGSLRLSCAASGFTFRLYVMGWYRQAPGKERELVAAISSRGGSTYYADSVKGRFTISRDNAKNTVYLQMNSLKPEDTAVYYCAADRPRGRETVDYWGQGTQVTVSS | high polyreactivity

Row | Sequence | polyreactivity (PSR sort gate)
23 | QVQLVESGGGLVQAGGSLRLSCAASGFTFRNYAMGWYIQAPGKERELVATISWSGGSTYYADSVKGRFTISRDNAKNTVYLQMNSLKPEDTAVYYCAAKTILWKYYPYYYVTYDYWGQGTQVTVSS | high polyreactivity
24 | QVQLVESGGGLVQAGGSLRLSCAASGFTFRQNAMGWYRQAPGNERELVAVITKSAGSTYYADSVKGRFTISRDNAKNTVYLQMNSLKPEATAVYYCNKRQRFVSSCRRSQGIGWEDDYWGQGTQVTVSS | low polyreactivity
25 | QVQLVESGGGLVQAGGSLRLSCAASGFTFRRNAMGWYRQAPGKERELVAAINVRDGSTYYADSVKGRFTISRDNAKNTVYLQMNSLKPEDTAVYYCAAEFFQGYYWYYYWGQGTQVTVSS | high polyreactivity
26 | QVQLVESGGGLVQAGGSLRLSCAASGFTFRRNAMGWYRQAPGKERELVAAISSSGGSTSYADSVKGRFTISRDNAKNTVYLQMNSLKPEDTAVYYCAVEVASYDRRPSEYYWGQGTQVTVSS | high polyreactivity
27 | QVQLVESGGGLVQAGGSLRLSCAASGFTFRRNAMGWYRQAPGKERELVASITINGGSTTYADSVKGRFTISRDNAKNTVYLQMNSLKPEDTAVYYCNKRYRTYRSVPQYEYWGQGTQVTVSS | high polyreactivity
28 | QVQLVESGGGLVQAGGSLRLSCAASGFTFRRYAMGWYRPARGKERELVAAIRQSGGSTYADSVKGRFTISRDNAKNTVYLQMNSLKPEDTAVYYCNAGVRAVNRKYDYWGQGTQVTVSS | high polyreactivity
29 | QVQLVESGGGLVQAGGSLRLSCAASGFTFRRYAMGWYRQAPGKERELVAAISASGGNTYYADSVKGRFTISRDNAKNTVYLQMNSLKPEDTAVYYCATDWTVRYDYWGQGTQVTVSS | high polyreactivity
30 | QVQLVESGGGLVQAGGSLRLSCAASGFTFRSYAMGWYRQAPGKEREFVAAINGRSGSTYADSVKGRFTISRDNAKNTVYLQMNSLNPEDTAVYYCAAGQRHKNSNRPDNYWGQGSQVTVSS | high polyreactivity
31 | QVQLVESGGGLVQAGGSLRLSCAASGFTFRVNAMGWYRQAPGKERELVAASSSGGRTYYADSVKGRFTISRDNAKNTVYLQMNSLKPEDTAVYYCNAGRVRHGNDYWGQGTQVTVSS | high polyreactivity
32 | QVQLVESGGGLVQAGGSLRLSCAASGFTFRVYAMGGYRPAPGKERELVAAITSGSSTTYADSVKGRFTISRDNAKNTVYLQMNSLKPEDTAVYYCNARRRGRVTGSYGYWGQGTQVTVSS | high polyreactivity
33 | QVQLVESGGGLVQAGGSLRLSCAASGFTFRVYAMGRYRQAPGKERELVAVISGTGGRTYYADSVKGRFTISRDNAKNTVYLQMNSLKPEDTAVYYCARRGRPPAIYDYWGQGTQVTVSS | high polyreactivity
34 | QVQLVESGGGLVQAGGSLRLSCAASGFTFRVYAMGWYRQAPGKERELVAAITQRGGSTYYADSVKGRFTISRDNSKNTVYLQMNRLNTEDTAVYYCNKFAGQPTYDYWGQGTQVTVSS | high polyreactivity
35 | QVQLVESGGGLVQAGGSLRLSCAASGFTFRVYAMGWYRQAPGKERELVAVISGTGGRTYYADSVKGRFTISRDNAKNTVYLQMNSLKPEDTAVYYCARRGRPPAIYDYWGQGTQVTVSS | high polyreactivity
36 | QVQLVESGGGLVQAGGSLRLSCAASGFTFRWNAMGWYRQAPGKERELVAAITSRGGSTYYADSVKGRFTISRDNAKNTVYLQINSLKPEDTAVYYCARLAGIGFSYRYDYWGQGTQVTVSS | high polyreactivity
37 | QVQLVESGGGLVQAGGSLRLSCAASGFTFRWYAMGSYRQAPGKERELVAAISSSGGSTYYADSVKGRFTISRDNAKNTVYLQMNSLKPEDTAVYYCAAASLRPYQRAYGYEYWGQGTQVTVSS | high polyreactivity
38 | QVQLVESGGGLVQAGGSLRLSCAASGFTFRWYAMGWYRQAPGKERELVAAISVSGGSTSYADSVKGRFTISRDNAKNTVYLQMNSLKPEDTAVYYCAAVRWAGYVSDYGYWGQGTQVTVSS | high polyreactivity
39 | QVQLVESGGGLVQAGGSLRLSCAASGFTFRYNAMGWYRQAPGKEREFVAAITVTGGSTYYADSVKGRFTISRDNAKNTVYLQMNCLKPEDTAVYYCNAYRYTSSKFGYWGQGTQVTVSS | low polyreactivity
40 | QVQLVESGGGLVQAGGSLRLSCAASGFTFRYNAMGWYRQAPGKERELVAAISWSGGSTYYADSVKGRFTISRDNAKNTVYLQMNSLKPEDTAVYYCNRAYGYSFSLNRYDYWGQGTQVTVSS | low polyreactivity
41 | QVQLVESGGGLVQAGGSLRLSCAASGFTFRYNTMGWYRQAPGKERELVAAISSSGGRTYYADSVKGRFTISRDNAKNTVYLQMNSLKPEDTAVYYCNAVTRESGGFDYWGQGTQVTVSS | high polyreactivity
42 | QVQLVESGGGLVQAGGSLRLSCAASGFTFRYYAMGGYRQAPGKERELVAAITASGGSTNYADSVKGRFTISRDNAKNTVYLQMNSLKPEDTAVYYCAADVRFSYYNRYRGYSAYDNWGQGTQVTVSS | high polyreactivity
43 | QVQLVESGGGLVQAGGSLRLSCAASGFTFRYYAMGWYRQAPGKERELVAAISWSGASTYYADSVKGRFTISRDNAKNTVYLQMNSLKPEDTAVYYCAADIPGTYYYWGQGTQVTVSS | high polyreactivity
